Results on nine molecules are retold here after PMC2613638 (The Journal of Biological Chemistry, 2009).

Values joined by “and” are separate entries in the source; they are usually repeats but may differ in a detail not shown here. Equal values may be shown once.

For one data set, the target named is T1, human CMKLR1 (Homo sapiens, UniProt Q99788).
T1 sequence (Q99788 1-373): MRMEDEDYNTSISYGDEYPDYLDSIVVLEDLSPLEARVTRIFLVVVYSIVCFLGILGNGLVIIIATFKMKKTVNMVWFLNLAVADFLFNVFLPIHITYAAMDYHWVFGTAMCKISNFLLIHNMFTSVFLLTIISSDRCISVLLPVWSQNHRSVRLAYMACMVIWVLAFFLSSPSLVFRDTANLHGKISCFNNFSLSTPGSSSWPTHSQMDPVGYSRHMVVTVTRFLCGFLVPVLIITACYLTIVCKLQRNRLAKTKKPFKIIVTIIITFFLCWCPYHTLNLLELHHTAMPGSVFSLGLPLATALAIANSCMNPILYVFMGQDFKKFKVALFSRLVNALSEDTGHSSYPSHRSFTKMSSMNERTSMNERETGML
The data set can be described thus: In vitro transwell chemotaxis of CMKLR1/L1.2 transfectants. The class given is cell-based.

In the next data set the target is T2, CPB (TAFIa) (Homo sapiens, UniProt Q96IY4).
T2 sequence (Q96IY4 115-423): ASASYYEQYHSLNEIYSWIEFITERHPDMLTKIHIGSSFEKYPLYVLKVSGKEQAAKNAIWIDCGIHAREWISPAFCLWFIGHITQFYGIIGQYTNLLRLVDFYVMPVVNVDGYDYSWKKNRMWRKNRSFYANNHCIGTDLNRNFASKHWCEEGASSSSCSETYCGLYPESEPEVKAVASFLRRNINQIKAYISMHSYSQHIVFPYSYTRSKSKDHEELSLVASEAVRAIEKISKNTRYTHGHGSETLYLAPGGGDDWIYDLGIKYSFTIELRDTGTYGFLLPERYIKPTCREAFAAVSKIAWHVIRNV
The settings on record: CPB cleavage of comparison peptides; cited from earlier work.

Another data set addresses T3, CPN (Homo sapiens, UniProt P15169).
T3 sequence (P15169 21-458): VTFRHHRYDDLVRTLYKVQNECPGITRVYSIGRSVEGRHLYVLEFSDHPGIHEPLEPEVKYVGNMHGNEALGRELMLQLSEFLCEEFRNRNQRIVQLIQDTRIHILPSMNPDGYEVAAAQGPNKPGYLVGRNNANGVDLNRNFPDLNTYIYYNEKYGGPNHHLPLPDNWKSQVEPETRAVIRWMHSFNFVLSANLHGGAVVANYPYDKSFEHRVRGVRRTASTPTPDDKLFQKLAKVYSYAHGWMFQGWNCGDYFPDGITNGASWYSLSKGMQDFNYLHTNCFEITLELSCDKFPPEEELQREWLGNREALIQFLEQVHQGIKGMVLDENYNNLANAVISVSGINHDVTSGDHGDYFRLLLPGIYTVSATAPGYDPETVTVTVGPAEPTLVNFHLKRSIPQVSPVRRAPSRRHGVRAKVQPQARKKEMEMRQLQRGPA
The settings on record: CPN cleavage of comparison peptides; cited from earlier work.

Another data set deals with Elastase. The conditions noted are these: cited from earlier work.
Another data set concerns Tryptase. The settings on record: cited from earlier work.
A further data set concerns Cathepsin G. The conditions noted are these: cited from earlier work.
A further data set has as its system Staphopain B. The settings on record: cited from earlier work.
In a further data set the test system is plasmin. The experiment in a line: plasmin. The settings on record: human.
Another data set relates to Human plasmin. The experiment in a line: plasmin. The conditions noted are these: 37°, up to 30 min.
The subject of another data set is plasmin followed by CPB. The data set can be described thus: plasmin. The settings on record: human, 37 °C, up to 30 min plasmin, then 30 min CPB.
The subject of the next data set is plasmin followed by CPN. The experiment in a line: plasmin. The settings on record: 37 °C, up to 30 min plasmin, then 30 min CPN.
For a further data set, the system named is washed platelets. The data set can be described thus: Chemerin release from washed platelets. The class given is cell-based, human. The settings on record: 37 °C for 3 min; thrombin receptor-activating peptide 20 μM, collagen 10 μg/ml, ADP 10 μM; Fig. 6C.

Broadly, the Km is the concentration of substrate that gives half-maximal velocity. As usually defined, the kcat is the number of substrate molecules converted per active site and unit of time at saturation. Broadly, the kcat/Km is the turnover number divided by the Michaelis constant.

On to `N=C(N)NCCSCC(CS)C(=O)O` (racemic) [MGTA, DL-2-Mercaptomethyl-3 guanidinoethylthiopropanoic acid], for which, at human CMKLR1 (MGTA 5 μM in PPP, treated prochemerin 0.2 nM, Fig. 4B), the “effect on PPP-induced increase of bioactivity of plasmin-cleaved prochemerin” value was “inhibited”.
For “Bradykinin (RPPGFSPFR; Bradykinin; UniProt P01042 381-389, looked up)”, in the data set with CPB (TAFIa), the Km is 70.6 ± 4.8 µM, the kcat was 19.7 ± 4.8 s⁻¹ and the kcat/Km is 280000 M⁻¹ s⁻¹. Moreover, in the data set with CPN, the Km was 303 ± 29.1 µM, the kcat is 9.1 ± 0.2 s⁻¹ and the kcat/Km is 30000 M⁻¹ s⁻¹.
As for “C3a^69-77: comparison substrate peptide derived from C3a (RASHLGLAR; C3a anaphylatoxin; UniProt P01024 740-748, looked up, fragment)”, in the data set with CPB (TAFIa), the Michaelis-Menten constant (Km) is 35.9 ± 6.6 µM, the kcat was 8.4 ± 0.6 s⁻¹ and the kcat/Km was 230000 M⁻¹ s⁻¹. In the data set with CPN, the Km was 77.1 ± 11.2 µM, the kcat was 57.9 ± 2.1 s⁻¹ and the kcat/Km was 750000 M⁻¹ s⁻¹.
Regarding “C5a^66-74: comparison substrate peptide derived from C5a (SHKDMQLGR; C5a anaphylatoxin; UniProt P01031 743-751, looked up, fragment)”, in the data set with CPB (TAFIa), the Km is 219 ± 16.2 µM, the kcat is 29.5 ± 0.7 s⁻¹ and the kcat/Km was 130000 M⁻¹ s⁻¹. For the same molecule, in the data set with CPN, the Km is 602 ± 74.3 µM, the turnover number (kcat) was 9.3 ± 0.4 s⁻¹ and the kcat/Km was 15000 M⁻¹ s⁻¹.
On to NH2-ADPELTEAQ...FAFSKALPRSPHHHHHH-COOH, for which the fragment found result in the data set on Elastase was “...YFPGQFAFS (21-157) and ...YFPGQFA (21-155) and ...YFPG (21-152)”; with Tryptase, “...YFPGQFAFSK (21-158) and ...YFPGQFA (21-155)”; in the data set with Cathepsin G it was “...YFPGQFAF (21-156)”; in the data set with Staphopain B it was “...YFPGQFAFS (21-157)”; with plasmin, “NH2-YFPGQFAFSK-COOH form (21-158)”.
In the case of YFPGQFAFSKALPRS, the fragment found with Human plasmin is 10-mer (YFPGQFAFSK); with plasmin followed by CPB, 9-mer (YFPGQFAFS); in the data set with plasmin followed by CPN, 9-mer (YFPGQFAFS).
In the case of collagen, in the data set with washed platelets, the “release of chemerin from washed platelets” value is “induced the release of chemerin”.
Take thrombin: on human CMKLR1 (thrombin 5 units/ml added to PPP, 37 °C 5 min, Fig. 6B), the “chemerin activities of PPP after addition of thrombin” value is on record as “had no effect”. In addition, the “chemotaxis of CMKLR1-transfected cells” value on human CMKLR1 (thrombin itself) was “did not induce the chemotaxis”.

B1: prochemerin: recombinant full-length prochemerin with carboxyl-terminal His6 tag, expressed in insect cells (protein, UniProt Q99969 21-163, looked up)
pro-form: ELTEAQRRGLQVALEEFHKHPPVQWAFQETSVESAVDTPFPAGIFVRLEFKLQQTSCRKRDWKKPECKVRPNGRKRKCLACIKLGSEDKVLGRLVHCPIETQVLREAEEHQETQCLRVQRAGEDPHSFYFPGQFAFSKALPRS
modifications: pro-form C-terminal His6 tag
Consider B1, for which, in the data set with human CMKLR1 (data not shown), the “CMKLR1-mediated chemotaxis after treatment with CPN and CPB alone” value was “did not induce CMKLR1-mediated chemotaxis”. Also, the “chemotactic activity after sequential treatment with plasmin and CPN or CPB” value in the data set with human CMKLR1 (plasmin 1 μM, CPN or CPB 30 nM, final chemerin concentration 0.5 nM, Fig. 3B) is “dramatically enhanced”. For the same molecule, the “chemotactic bioactivity after plasmin alone” value in the data set with human CMKLR1 (prochemerin activation by plasmin, dose-response, Fig. 3A) is “increased its chemotactic bioactivity”.
